From patent publication US20250076311A1 (Chugai, published 2025)
Residue numbers refer to the chain shown, from its start. Names and notes keep the numbering of the source. Values belong to the binder of their own block, whether it stands above or below them.

Experiments:
[1] = molecular target: T1, human FcγRIIaH extracellular domain, His-tagged (human, UniProt P12318 34-217); assay: SPR (Biacore), 25C, FcgR bound per antibody captured
T1 construct: also called human FcgRIIaH; FcγRIIa type H
T1 sequence: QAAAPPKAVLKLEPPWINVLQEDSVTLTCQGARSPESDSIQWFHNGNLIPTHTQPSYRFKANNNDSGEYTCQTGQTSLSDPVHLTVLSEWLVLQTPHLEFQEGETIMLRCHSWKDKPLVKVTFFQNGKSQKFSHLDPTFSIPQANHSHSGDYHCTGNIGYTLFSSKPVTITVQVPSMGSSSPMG

[2] = molecular target: T2, human FcγRIIb extracellular domain, His-tagged (human, UniProt P31994 43-217); assay: as above
T2 construct: also called human FcgRIIb
T2 sequence: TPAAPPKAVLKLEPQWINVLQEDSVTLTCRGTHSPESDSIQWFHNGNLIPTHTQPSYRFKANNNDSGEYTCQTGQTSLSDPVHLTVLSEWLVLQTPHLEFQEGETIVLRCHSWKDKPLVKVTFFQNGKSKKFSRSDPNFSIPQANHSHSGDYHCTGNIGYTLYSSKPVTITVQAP

[3] = molecular target: T3, human FcγRIIIaV extracellular domain, His-tagged (human, UniProt P08637 17-208); assay: as above
T3 construct: also called human FcgRIIIaV
T3 sequence (P08637 17-208 F176V): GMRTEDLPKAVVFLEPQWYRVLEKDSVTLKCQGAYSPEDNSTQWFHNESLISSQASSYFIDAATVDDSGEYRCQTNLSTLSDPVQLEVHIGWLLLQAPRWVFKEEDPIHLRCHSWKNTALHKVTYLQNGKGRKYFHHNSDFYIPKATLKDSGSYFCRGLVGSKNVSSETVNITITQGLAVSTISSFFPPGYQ

[4] = molecular target: T4, cynomolgus monkey FcγRIIIaS extracellular domain with C-terminal His-tag (cynomolgus monkey, UniProt A3RFZ7 21-206 (rhesus entry)); assay: SPR (BIACORE); KD of SG1 / KD of variant
T4 construct: also called cyno FcgRIIIaS; cynoFcγRIIIaS; not shown: His-tag added to the C-terminus
Protocol: (§1) The kinetic analysis of interactions between these antibodies and FcγR was carried out using BIACORE® T200 or BIACORE® 4000 (GE Healthcare). HBS-EP+ (GE Healthcare) was used as the running buffer, and the measurement temperature was set to 25° C. […] After the measurement, the antibody captured on the chip was washed off by allowing reaction with 10 mM glycine-HCl, pH1.5 and 25 mM NaOH so that the chip was regenerated and used repeatedly. The sensorgrams obtained as measurement results were analyzed by the 1:1 Langmuir binding model using the BIACORE® Evaluation Software to calculate the binding rate constant ka (L/mol/s) and dissociation rate constant kd (1/s), and the dissociation constant KD (mol/L) was calculated from these values. […] Regarding such interactions, KD values were calculated using the following 1:1 binding model described in BIACORE® T100 Software Handbook BR1006-48 Edition AE.

[5] = molecular target: T4, cynomolgus monkey FcγRIIIaS …; assay: SPR (BIACORE), antibody captured, FcgR analyte
Protocol: as §1

[6] = molecular target: T5, cynomolgus monkey FcγRIIIaS extracellular domain with C-terminal His-tag (cynomolgus monkey, UniProt Q8SPW2 21-206 at identity 1.00)); assay: SPR, KD(parent SG1)/KD(variant)
T5 construct: also called cyno FcgRIIIaS; cynoFcγRIIIaS
T5 chain: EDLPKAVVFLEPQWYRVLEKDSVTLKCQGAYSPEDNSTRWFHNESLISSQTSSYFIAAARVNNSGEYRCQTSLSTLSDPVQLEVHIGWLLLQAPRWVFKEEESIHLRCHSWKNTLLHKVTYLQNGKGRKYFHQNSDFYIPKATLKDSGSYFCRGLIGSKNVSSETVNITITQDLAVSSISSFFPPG

[7] = molecular target: T6, human FcγRIIaR extracellular domain with C-terminal His-tag (human, UniProt P12318 34-217); assay: SPR (BIACORE), antibody captured, FcgR analyte
T6 construct: also called human FcgRIIaR; FcγRIIa type R; not shown: His-tag added to the C-terminus
T6 chain: T1 sequence with H134R
Protocol: as §1

[8] = molecular target: T7, cynomolgus monkey FcγRIIa3 extracellular domain with C-terminal His-tag (cynomolgus monkey); assay: SPR (BIACORE), antibody captured, FcgR analyte
T7 construct: also called cyno FcgRIIa3; cynoFcγRIIa3; not shown: His-tag added to the C-terminus
T7 chain: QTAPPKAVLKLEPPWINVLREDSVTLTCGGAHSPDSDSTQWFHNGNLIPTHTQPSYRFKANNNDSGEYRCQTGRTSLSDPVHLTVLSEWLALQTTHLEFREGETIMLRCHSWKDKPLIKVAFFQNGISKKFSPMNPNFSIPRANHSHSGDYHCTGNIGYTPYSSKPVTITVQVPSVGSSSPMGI
Protocol: as §1

[9] = molecular target: T8, cynomolgus monkey FcγRIIa3 extracellular domain with C-terminal His-tag (cynomolgus monkey); assay: SPR Biacore, antibody captured, FcgR analyte
T8 construct: also called cyno FcgRIIa3; cynoFcγRIIa3; not shown: His-tag added to C-terminus
T8 chain: T7 chain

[10] = molecular target: T9, cynomolgus monkey FcγRIIb extracellular domain with C-terminal His-tag (cynomolgus monkey); assay: SPR Biacore, antibody captured, FcgR analyte
T9 construct: also called cyno FcgRIIb; cynoFcγRIIb; not shown: His-tag added to C-terminus
T9 chain: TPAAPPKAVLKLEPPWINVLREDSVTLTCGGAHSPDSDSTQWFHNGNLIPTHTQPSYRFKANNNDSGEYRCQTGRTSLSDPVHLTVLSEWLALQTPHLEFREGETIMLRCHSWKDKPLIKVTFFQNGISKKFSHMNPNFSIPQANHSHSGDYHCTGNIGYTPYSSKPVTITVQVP

[11] = molecular target: T10, cynomolgus monkey FcγRIIIaS extracellular domain with C-terminal His-tag (cynomolgus monkey, UniProt A3RFZ7 21-206 (rhesus entry)); assay: SPR Biacore, antibody captured, FcgR analyte
T10 construct: also called cyno FcgRIIIaS; cynoFcγRIIIaS; not shown: His-tag added to C-terminus

[12] = molecular target: T11, human FcγRIIb extracellular domain with C-terminal His-tag (human, UniProt P31994 43-217); assay: SPR Biacore, antibody captured, FcgR analyte
T11 construct: also called human FcgRIIb; not shown: His-tag added to C-terminus
T11 sequence: T2 sequence

B5: M103205H795-MY001/M103202L889-SK1 (antibody, human IgG1, kappa, name in EU numbering)
heavy: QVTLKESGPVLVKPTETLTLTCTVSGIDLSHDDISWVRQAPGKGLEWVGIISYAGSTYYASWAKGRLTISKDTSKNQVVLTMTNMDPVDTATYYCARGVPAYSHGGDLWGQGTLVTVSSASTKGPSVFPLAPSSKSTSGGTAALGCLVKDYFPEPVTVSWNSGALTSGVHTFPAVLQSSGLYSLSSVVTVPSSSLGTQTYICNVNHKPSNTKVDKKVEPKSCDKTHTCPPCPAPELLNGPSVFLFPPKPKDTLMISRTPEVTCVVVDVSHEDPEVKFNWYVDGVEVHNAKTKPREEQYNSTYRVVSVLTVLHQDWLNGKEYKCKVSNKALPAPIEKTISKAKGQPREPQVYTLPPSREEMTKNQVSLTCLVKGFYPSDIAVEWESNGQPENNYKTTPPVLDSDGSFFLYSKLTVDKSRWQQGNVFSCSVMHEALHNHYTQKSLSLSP
light: DIVMTQSPATLSLSPGERATLSCTSSQSVYHANWLSWFQQKPGQPPKLLIYWASTLAYGVPSRFSGSGSGTDFTLTISSLQPEDAATYYCAGGYGGGRYAFGQGTKVEIKRTVAAPSVFIFPPSDEQLKSGTASVVCLLNNFYPREAKVQWKVDNALQSGNSQESVTEQDSKDSTYSLSSTLTLSKADYEKHKVYACEVTHQGLSSPVTKSFNRGEC
notes: Fc variant of MS1032LO06-SG1; positions in EU numbering
- KD fold (SG1 = 1) [4]: 0.05 fold
- Kd [5]: 32 µM

B6: MS1032LO19-SG1 (antibody, human IgG1, kappa)
heavy: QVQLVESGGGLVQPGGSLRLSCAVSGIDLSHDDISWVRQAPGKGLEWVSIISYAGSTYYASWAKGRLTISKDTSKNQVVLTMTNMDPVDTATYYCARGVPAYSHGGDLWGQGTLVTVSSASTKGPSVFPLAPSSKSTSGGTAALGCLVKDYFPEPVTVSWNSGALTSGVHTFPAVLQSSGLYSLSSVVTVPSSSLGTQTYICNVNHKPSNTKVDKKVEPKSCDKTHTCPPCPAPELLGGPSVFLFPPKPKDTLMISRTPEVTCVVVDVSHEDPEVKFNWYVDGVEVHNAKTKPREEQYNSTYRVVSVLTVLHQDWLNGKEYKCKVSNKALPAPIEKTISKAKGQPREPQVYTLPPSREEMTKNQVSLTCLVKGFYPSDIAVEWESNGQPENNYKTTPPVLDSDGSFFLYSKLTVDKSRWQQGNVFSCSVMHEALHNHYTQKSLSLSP
light: B5 light with S25T, A32E
notes: tied to rows r13/r31 by row order only; also called MS103240H795-SG1; copies: 2 + 2
- KD fold (SG1 = 1) [6]: 1 fold

B8: M103205H795-MY049/M103202L889-SK1 (antibody, human IgG1, kappa, name in EU numbering)
heavy: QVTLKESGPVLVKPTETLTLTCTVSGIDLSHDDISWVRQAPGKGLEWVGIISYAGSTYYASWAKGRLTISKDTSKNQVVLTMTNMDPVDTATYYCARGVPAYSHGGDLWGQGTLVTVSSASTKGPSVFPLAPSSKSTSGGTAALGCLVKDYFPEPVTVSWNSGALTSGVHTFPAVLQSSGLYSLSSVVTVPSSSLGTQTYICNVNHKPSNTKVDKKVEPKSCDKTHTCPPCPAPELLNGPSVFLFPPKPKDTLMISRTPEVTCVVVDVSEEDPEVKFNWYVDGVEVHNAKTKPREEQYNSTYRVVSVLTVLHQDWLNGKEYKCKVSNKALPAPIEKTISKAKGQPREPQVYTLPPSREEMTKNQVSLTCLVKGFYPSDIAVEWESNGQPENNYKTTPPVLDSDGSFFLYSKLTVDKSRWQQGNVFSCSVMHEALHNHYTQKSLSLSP
light: B5 light
notes: as for B5
- KD fold (SG1 = 1) [4]: 0.08 fold
- Kd [5]: 4.5 µM
- Kd [7]: 7.8 µM

B9: M103205H795-MY200/M103202L889-SK1 (antibody)
heavy: QVTLKESGPVLVKPTETLTLTCTVSGIDLSHDDISWVRQAPGKGLEWVGIISYAGSTYYASWAKGRLTISKDTSKNQVVLTMTNMDPVDTATYYCARGVPAYSHGGDLWGQGTLVTVSSASTKGPSVFPLAPSSKSTSGGTAALGCLVKDYFPEPVTVSWNSGALTSGVHTFPAVLQSSGLYSLSSVVTVPSSSLGTQTYICNVNHKPSNTKVDKKVEPKSCDKTHTCPPCPAPELLNGPVVFLFPPKPKDTLMISRTPEVTCVVVDVSEEDPEVKFNWYVDGVEVHNAKTKPREEQYNSTYRVVSVLTVLHQDWLNGKEYKCKVSNKALPKPIEKTISKAKGQPREPQVYTLPPSREEMTKNQVSLTCLVKGFYPSDIAVEWESNGQPENNYKTTPPVLDSDGSFFLYSKLTVDKSRWQQGNVFSCSVMHEALHNHYTQKSLSLSP
light: B5 light
notes: Fc variant of MS1032LO06-SG1; EU numbering; printed S2369V is probably S239V
- Kd [5]: 4.4 µM
- Kd [7]: 2.7 µM

B11: M103205H795-MY204/M103202L889-SK1 (antibody, human IgG1, kappa, name in EU numbering)
heavy: B9 heavy with Q297L
light: B5 light
notes: substitutions in EU numbering, introduced into M103205H795-SG1
- KD fold (SG1 = 1) [9]: 3.3 fold
- KD fold (SG1 = 1) [10]: 2.2 fold
- KD fold (SG1 = 1) [11]: 0.1 fold

B13: M103205H795-MY350/M103202L889-SK1 (antibody, human IgG1, kappa, name in EU numbering)
heavy: B9 heavy with L237W, V241S, P398M
light: B5 light
notes: as for B11
- KD fold (SG1 = 1) [10]: 3.2 fold
- KD fold (SG1 = 1) [11]: 0.05 fold

B14: M103205H795-MY288/M103202L889-SK1 (antibody, human IgG1, kappa, name in EU numbering)
heavy: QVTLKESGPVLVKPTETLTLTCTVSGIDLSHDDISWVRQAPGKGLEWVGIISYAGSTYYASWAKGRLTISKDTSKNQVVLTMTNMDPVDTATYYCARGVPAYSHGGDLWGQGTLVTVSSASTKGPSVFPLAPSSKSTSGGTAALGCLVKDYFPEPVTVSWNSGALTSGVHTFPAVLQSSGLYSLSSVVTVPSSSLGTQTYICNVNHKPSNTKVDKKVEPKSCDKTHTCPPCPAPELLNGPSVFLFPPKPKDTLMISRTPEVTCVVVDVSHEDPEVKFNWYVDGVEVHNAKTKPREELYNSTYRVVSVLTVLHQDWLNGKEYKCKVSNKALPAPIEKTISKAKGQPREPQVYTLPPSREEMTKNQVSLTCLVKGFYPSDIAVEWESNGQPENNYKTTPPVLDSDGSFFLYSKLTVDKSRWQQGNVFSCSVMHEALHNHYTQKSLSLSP
light: B5 light
notes: as for B11
- KD fold (SG1 = 1) [9]: 1.5 fold
- KD fold (SG1 = 1) [10]: 1.5 fold
- KD fold (SG1 = 1) [11]: 0.03 fold
- KD fold (SG1 = 1) [12]: 0.5 fold

Results, then the binder that gave them:

- Binding to human FcgRs (parent B3 = 100) [1]: 65
- Binding to human FcgRs (parent B3 = 100) [2]: 72
- Binding to human FcgRs (parent B3 = 100) [3]: -1
B1: GpH7-B3 N325F / GpL16-k0 (antibody, human IgG1, kappa)
heavy: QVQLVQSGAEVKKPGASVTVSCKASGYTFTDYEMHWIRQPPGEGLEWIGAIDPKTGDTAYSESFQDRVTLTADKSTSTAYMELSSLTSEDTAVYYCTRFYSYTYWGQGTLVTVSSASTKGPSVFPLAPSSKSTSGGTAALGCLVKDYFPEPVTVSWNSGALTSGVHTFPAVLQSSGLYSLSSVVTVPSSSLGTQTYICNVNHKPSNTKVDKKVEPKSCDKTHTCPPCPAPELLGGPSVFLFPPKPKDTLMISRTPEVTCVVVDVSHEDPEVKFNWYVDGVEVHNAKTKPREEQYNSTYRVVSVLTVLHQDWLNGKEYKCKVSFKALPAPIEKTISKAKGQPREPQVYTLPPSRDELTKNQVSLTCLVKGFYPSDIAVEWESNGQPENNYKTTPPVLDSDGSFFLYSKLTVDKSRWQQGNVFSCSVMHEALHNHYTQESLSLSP
light: DIVMTQSPLSLPVTPGEPASISCQASESLVHSNRNTYLHWYLQKPGQSPQLLIYKVSNRFSGVPDRFSGSGSGTDFTLKISRVEAEDVGVYYCSQNTHVPPTFGQGTKVEIERTVAAPSVFIFPPSDEQLKSGTASVVCLLNNFYPREAKVQWKVDNALQSGNSQESVTEQDSKDSTYSLSSTLTLSKADYEKHKVYACEVTHQGLSSPVTKSFNRGEC
notes: also called B3 variant N325F

- Binding to human FcgRs (parent B3 = 100) [2]: 88
- Binding to human FcgRs (parent B3 = 100) [3]: 2
B2: GpH7-B3 V266F / GpL16-k0 (antibody, human IgG1, kappa)
heavy: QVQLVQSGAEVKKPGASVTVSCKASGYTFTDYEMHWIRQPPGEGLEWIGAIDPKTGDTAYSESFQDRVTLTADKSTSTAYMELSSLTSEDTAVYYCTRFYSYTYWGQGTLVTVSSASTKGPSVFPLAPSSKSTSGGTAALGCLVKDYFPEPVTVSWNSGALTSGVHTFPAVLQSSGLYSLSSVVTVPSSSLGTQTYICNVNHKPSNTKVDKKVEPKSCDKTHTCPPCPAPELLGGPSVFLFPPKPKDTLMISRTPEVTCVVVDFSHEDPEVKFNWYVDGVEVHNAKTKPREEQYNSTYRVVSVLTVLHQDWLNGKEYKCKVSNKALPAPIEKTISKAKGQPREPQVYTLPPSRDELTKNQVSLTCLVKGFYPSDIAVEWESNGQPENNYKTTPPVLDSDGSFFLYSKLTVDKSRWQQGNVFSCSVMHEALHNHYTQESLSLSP
light: B1 light
notes: also called B3 variant V266F

- Binding to human FcgRs (parent B3 = 100) [1]: 86
- Binding to human FcgRs (parent B3 = 100) [3]: 2
B3: GpH7-B3 P238M / GpL16-k0 (antibody, human IgG1, kappa)
heavy: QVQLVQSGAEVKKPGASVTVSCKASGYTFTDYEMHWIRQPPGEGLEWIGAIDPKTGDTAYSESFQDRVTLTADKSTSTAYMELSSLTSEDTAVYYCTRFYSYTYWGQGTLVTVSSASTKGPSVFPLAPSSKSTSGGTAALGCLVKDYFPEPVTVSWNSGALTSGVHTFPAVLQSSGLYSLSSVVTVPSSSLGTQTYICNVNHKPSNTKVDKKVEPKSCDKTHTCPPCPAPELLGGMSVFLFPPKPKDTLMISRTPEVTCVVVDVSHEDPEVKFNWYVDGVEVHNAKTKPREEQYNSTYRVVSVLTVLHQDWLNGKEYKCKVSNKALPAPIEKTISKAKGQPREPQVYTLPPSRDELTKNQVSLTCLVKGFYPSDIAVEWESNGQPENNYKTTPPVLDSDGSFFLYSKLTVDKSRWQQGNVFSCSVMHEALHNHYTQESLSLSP
light: B1 light
notes: also called B3 variant P238M

- Binding to human FcgRs (parent B3 = 100) [1]: 93
- Binding to human FcgRs (parent B3 = 100) [2]: 114
- Binding to human FcgRs (parent B3 = 100) [3]: 3
B4: GpH7-B3 P238Y / GpL16-k0 (antibody, human IgG1, kappa)
heavy: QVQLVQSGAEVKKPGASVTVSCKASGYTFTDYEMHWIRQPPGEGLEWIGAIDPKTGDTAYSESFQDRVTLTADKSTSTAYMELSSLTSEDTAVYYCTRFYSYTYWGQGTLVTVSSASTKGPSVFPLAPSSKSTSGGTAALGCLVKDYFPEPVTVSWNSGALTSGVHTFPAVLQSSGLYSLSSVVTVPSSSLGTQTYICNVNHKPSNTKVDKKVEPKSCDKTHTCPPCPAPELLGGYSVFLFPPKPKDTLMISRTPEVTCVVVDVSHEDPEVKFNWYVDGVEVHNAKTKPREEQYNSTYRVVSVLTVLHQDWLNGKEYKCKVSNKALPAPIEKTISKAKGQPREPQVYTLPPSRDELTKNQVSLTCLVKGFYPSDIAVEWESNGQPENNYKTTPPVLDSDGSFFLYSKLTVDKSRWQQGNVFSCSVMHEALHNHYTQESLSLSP
light: B1 light
notes: also called B3 variant P238Y

- KD fold (SG1 = 1) [6]: 0.09 fold
B7: MS1032LO19-SG1081 (antibody, name in EU numbering)
heavy: QVQLVESGGGLVQPGGSLRLSCAVSGIDLSHDDISWVRQAPGKGLEWVSIISYAGSTYYASWAKGRLTISKDTSKNQVVLTMTNMDPVDTATYYCARGVPAYSHGGDLWGQGTLVTVSSASTKGPSVFPLAPSSKSTSGGTAALGCLVKDYFPEPVTVSWNSGALTSGVHTFPAVLQSSGLYSLSSVVTVPSSSLGTQTYICNVNHKPSNTKVDKKVEPKSCDKTHTCPPCPAPELWNGPSVFLFPPKPKDTLMISRTPEVTCVVVDVSDEDPEVKFNWYVDGVEVHNAKTKPREELYNSTYRVVSVLTVLHRDWLNGKEYKCKVSNTALPKPIEKTISKAKGQRREPQVYTLPPSREEMTKNQVSLTCLVKGFYPSDIAVEWESNGQPENNYKTTPPVLDSDGSFFLYSKLTVDKSRWQQGNVFSCSVMHEALHAHYTRKELSLSP
light: B5 light with S25T, A32E
notes: tied to rows r19/r37 by row order only; also called MS103240H795-SG1081

- Kd [8]: 4.8 µM
- Kd [5]: 9.3 µM
- Kd [7]: 1.1 µM
B10: M103205H795-MY440/M103202L889-SK1 (antibody, human IgG1, kappa, name in EU numbering)
heavy: B9 heavy with L237W, V241S, E270D, Q297L
light: B5 light
notes: as for B5

- KD fold (SG1 = 1) [6]: 0.09 fold
B12: MS1032LO19-SG1077 (antibody, name in EU numbering)
heavy: B7 heavy with M430L, Y438T
light: B5 light with S25T, A32E
notes: tied to rows r16/r34 by row order only; also called MS103240H795-SG1077
